We go through 27 molecules from patent publication US20250332264A1, “GhR-BINDING PEPTIDE AND COMPOSITION COMPRISING SAME” (priority 2021, published 2025).

Starred links: 1 amine or outer side, 2 acyl side, 3 side chain; linkers in the order of their positions; H or OH if unused. Positions of bridges follow the written chain, without caps; N, C: chain ends. Non-standard residues stand in square brackets, D forms with d. Groups on a side chain read outwards from the residue. No end group written: not given here. *: point of attachment. A4pipaa = 4-amino-1-(carboxymethyl)piperidine-4-carboxylic acid, O=C(C1(N[*:1])CCN(CC(=O)[*:3])CC1)[*:2]; BiPh4pCO = 4-([1,1′-biphenyl]-4-yl)butanoic acid, O=C(CCCc1ccc(-c2ccccc2)cc1)*; Biph4pCO = 4-([1,1′-biphenyl]-4-yl)butanoic acid, O=C(CCCc1ccc(-c2ccccc2)cc1)*; X1 = 4‑(carboxymethyl)piperazine‑1‑carbonyl, O=C(O)CN1CCN(C(=O)*)CC1; Trp(1-CH2CO) = O=C([C@H](Cc1cn(CC(=O)[*:3])c2ccccc12)N[*:1])[*:2]; Trp(5-OMe) = COc1ccc2[nH]cc(C[C@H](N)C(=O)O)c2c1; Butanoyl(4-(4-I-phenyl)) = O=C(CCCc1ccc(I)cc1)*; Trp(5-OH) = N[C@@H](Cc1c[nH]c2ccc(O)cc12)C(=O)O; Phe(4-COOH) = N[C@@H](Cc1ccc(C(=O)O)cc1)C(=O)O; Trp(7-aza) = N[C@@H](Cc1c[nH]c2ncccc12)C(=O)O; Butanoyl(4-(4-MePh)) = Cc1ccc(CCCC(=O)*)cc1; C17 diacid = O=C(O)CCCCCCCCCCCCCCCC(=O)*; C16 diacid = O=C(O)CCCCCCCCCCCCCCC(=O)*; C15 diacid = O=C(O)CCCCCCCCCCCCCC(=O)*; C14 diacid = O=C(O)CCCCCCCCCCCCC(=O)*; Hexanoyl(6-Ph) = O=C(CCCCCc1ccccc1)*; Butanoyl(4-Ph) = O=C(CCCc1ccccc1)*; 4Pal = N[C@@H](Cc1ccncc1)C(=O)O; NMeK = CN[C@@H](CCCCN)C(=O)O; W5H = not defined here; AEEA = NCCOCCOCC(=O)O; Aib = CC(C)(N)C(=O)O

Sequences and labels used below:
B1: GhR_PD_208 (peptide)
peptide: {CH2CO}-[Phe(4-COOH)]KVVSN[Trp(5-OMe)][Phe(4-COOH)]K[Trp(5-OH)][Aib]VC-NH2
modifications: thioether N-13; not fully specified (residue 2); also: albumin binder E-4IPhpCO, attachment site not given here
B2: GhR_PD_233 (peptide)
peptide: {CH2CO}-[F4COO][MeK]VVSN[W1aa][F4COO]K[W5H][Aib]VCK
modifications: thioether N-13; lactam 2-7; reading uncertain; also: albumin binder E-E-cC14COO on the side-chain amino group of the linker lysine, which lysine is not given here
B3: GhR_PD_203 (peptide)
peptide: {CH2CO}-YKVVSN[Trp(7-aza)][Phe(4-COOH)]K[Trp(5-OH)][Aib]VC-NH2
modifications: thioether N-13; not fully specified (residue 2); also: albumin binder E-4IPhpCO, attachment site not given here
B4: GhR_PD_206 (peptide)
peptide: {CH2CO}-YKVVSN[Trp(5-OMe)]YK(X1)[Trp(5-OH)][Aib]VC-NH2
modifications: thioether N-13; not fully specified (residue 2); also: albumin binder E-4IPhpCO, attachment site not given here
B5: GhR_PD_223 (peptide)
peptide: {CH2CO}-[Phe(4-COOH)]KVVSN[Trp(5-OMe)][Phe(4-COOH)]K(X1)[Trp(5-OH)][Aib]VC-NH2
modifications: thioether N-13; not fully specified (residue 2); also: albumin binder E-4IPhpCO, attachment site not given here
B6: GhR_PD_211 (peptide)
peptide: {CH2CO}-YKVVSN[Trp(5-OMe)][Phe(4-COOH)]K[Trp(5-OH)][Aib]VC-NH2
modifications: thioether N-13; not fully specified (residue 2); also: albumin binder E-E-4IPhpCO, attachment site not given here
B7: GhR_PD_202 (peptide)
peptide: {CH2CO}-[4Pal]KVVSN[Trp(5-OMe)][Phe(4-COOH)]K[Trp(5-OH)][Aib]VC-NH2
modifications: thioether N-13; not fully specified (residue 2); also: albumin binder E-4IPhpCO, attachment site not given here
B8: GhR_PD_212 (peptide)
peptide: {CH2CO}-[Phe(4-COOH)]KVVSN[Trp(5-OMe)][Phe(4-COOH)]K[Trp(5-OH)][Aib]VC-NH2
modifications: thioether N-13; not fully specified (residue 2); also: albumin binder E-E-4IPhpCO, attachment site not given here
B9: GhR_PD_204 (peptide)
peptide: {CH2CO}-[4Pal]KVVSN[Trp(7-aza)][Phe(4-COOH)]K[Trp(5-OH)][Aib]VC-NH2
modifications: thioether N-13; not fully specified (residue 2); also: albumin binder E-4IPhpCO, attachment site not given here
B10: GhR_PD_224 (peptide)
peptide: {CH2CO}-[Phe(4-COOH)]KVVSN[Trp(5-OMe)][Phe(4-COOH)]K[Trp(5-OH)][A4pipaa]VC-NH2
modifications: thioether N-13; not fully specified (residue 2); also: albumin binder E-4IPhpCO, attachment site not given here

The target of the assay is Recombinant human GhR-Fc protein (R&D Systems) (human) (UniProt P10912). The experiment in a line: SPR, Biacore T200, single-cycle kinetics, GhR-Fc immobilised on CM5.
Chain of Recombinant human GhR-Fc protein (R&D Systems) (human) (P10912 19-264 limits assumed): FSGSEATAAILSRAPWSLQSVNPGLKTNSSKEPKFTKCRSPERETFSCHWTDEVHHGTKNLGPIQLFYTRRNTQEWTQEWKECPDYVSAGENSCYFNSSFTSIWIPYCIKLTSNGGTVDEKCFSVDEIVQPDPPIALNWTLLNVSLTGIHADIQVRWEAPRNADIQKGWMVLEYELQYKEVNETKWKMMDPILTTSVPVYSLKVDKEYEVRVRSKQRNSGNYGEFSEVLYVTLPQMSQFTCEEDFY
Take B1: the Kd – broadly, the equilibrium constant for the complex coming apart – was 2.19 nM. The figure for {CH2CO}-[Phe(4-COOH)]KVVSN[Trp(1-CH2CO)][Phe(4-COOH)]K[Trp(5-OH)][Aib]VCK([Glu-Glu-C17 diacid])-NH2 (thioether N-13; lactam 2-7; not fully specified (residue 2)) [GhR_PD_270] is 2.53 nM. The figure for {CH2CO}-[Phe(4-COOH)]KVVSN[Trp(1-CH2CO)][Phe(4-COOH)]K[Trp(5-OH)][Aib]VCK([Glu-Butanoyl(4-(4-I-phenyl))])-NH2 (thioether N-13; lactam 2-7; not fully specified (residue 2)) [GhR_PD_247] is 1.36 nM; for B2 it is 2.85 nM. For {CH2CO}-[Phe(4-COOH)]KVVSN[Trp(1-CH2CO)][Phe(4-COOH)]K[Trp(5-OH)][Aib]VCGP[dS][dS][dS]K([Glu-Glu-Butanoyl(4-(4-I-phenyl))])-NH2 (thioether N-13; lactam 2-7; not fully specified (residue 2)) [GhR_PD_248], the Kd was 1.88 nM. The figure for B3 is 3.95 nM; for B4 it is 9.67 nM; for {CH2CO}-[Phe(4-COOH)]KVVSN[Trp(1-CH2CO)][Phe(4-COOH)]K[Trp(5-OH)][Aib]VCK([AEEA-AEEA-Glu-Glu-C15 diacid])-NH2 (thioether N-13; lactam 2-7; not fully specified (residue 2)) [GhR_PD_272] it is 3.7 nM.

For B5, the dissociation constant (Kd) worked out at 5.47 nM. On to {CH2CO}-[Phe(4-COOH)]KVVSN[Trp(1-CH2CO)][Phe(4-COOH)]K[Trp(5-OH)][Aib]VCK([AEEA-AEEA-Glu-Glu-C16 diacid])-NH2 (thioether N-13; lactam 2-7; not fully specified (residue 2)) [GhR_PD_273], for which the dissociation constant (Kd) came out at 3.61 nM. The figure for {CH2CO}-[Phe(4-COOH)]KVVSN[Trp(1-CH2CO)][Phe(4-COOH)]K[Trp(5-OH)][Aib]VCK([AEEA-AEEA-Glu-Glu-C14 diacid])-NH2 (thioether N-13; lactam 2-7; not fully specified (residue 2)) [GhR_PD_271] is 3.88 nM. As for {CH2CO}-[Phe(4-COOH)][NMeK]([Glu-Hexanoyl(6-Ph)])VVSN[Trp(5-OMe)][Phe(4-COOH)]K[Trp(5-OH)][4‑amino‑1‑(carboxymethyl)piperidine‑4‑carboxylic acid]VC-NH2 (thioether N-13) [GhR_PD_256], the figure is 2.82 nM.

On to {CH2CO}-[Phe(4-COOH)][NMeK]([Glu-BiPh4pCO])VVSN[Trp(5-OMe)][Phe(4-COOH)]K[Trp(5-OH)][4‑amino‑1‑(carboxymethyl)piperidine‑4‑carboxylic acid]VC-NH2 (thioether N-13) [GhR_PD_255], for which the Kd came to 5.81 nM. On to {CH2CO}-Y[MeK]([Glu-Glu-Butanoyl(4-(4-I-phenyl))])VVSN[Trp(5-OMe)][Phe(4-COOH)]K[Trp(5-OH)][A4pipaa]VC-NH2 (thioether N-13) [GhR_PD_228], for which the dissociation constant Kd was 4.13 nM. For the molecule {CH2CO}-[Phe(4-COOH)]KVVSN[Trp(1-CH2CO)][Phe(4-COOH)]K[Trp(5-OH)][Aib]VCK([Glu-Glu-Butanoyl(4-(4-MePh))])-NH2 (thioether N-13; lactam 2-7; not fully specified (residue 2)) [GhR_PD_245], the Kd was 1.95 nM. As for {CH2CO}-[Phe(4-COOH)]KVVSN[Trp(1-CH2CO)][Phe(4-COOH)]K[Trp(5-OH)][Aib]VCK([Glu-Glu-Butanoyl(4-Ph)])-NH2 (thioether N-13; lactam 2-7; not fully specified (residue 2)) [GhR_PD_218], the figure is 2.03 nM; as for {CH2CO}-[Phe(4-COOH)]KVVSN[Trp(1-CH2CO)][Phe(4-COOH)]K[Trp(5-OH)][Aib]VCK([Glu-Glu-Hexanoyl(6-Ph)])-NH2 (thioether N-13; lactam 2-7; not fully specified (residue 2)) [GhR_PD_254], 1.93 nM; as for B6, 3.36 nM. As for {CH2CO}-[Phe(4-COOH)]KVVSN[Trp(1-CH2CO)][Phe(4-COOH)]K[Trp(5-OH)][Aib]VCK([Glu-Glu-C15 diacid])-NH2 (thioether N-13; lactam 2-7; not fully specified (residue 2)) [GhR_PD_269], the dissociation constant Kd amounted to 3.1 nM. As for B7, the figure is 2.77 nM; as for B8, 2.96 nM. Turning to B9, the equilibrium dissociation constant (Kd) was determined as 9.43 nM.

With {CH2CO}-[Phe(4-COOH)]KVVSN[Trp(1-CH2CO)][Phe(4-COOH)]K[Trp(5-OH)][Aib]VCK([Glu-Glu-Ac])-NH2 (thioether N-13; lactam 2-7; not fully specified (residue 2)) [GhR_PD_267], the equilibrium dissociation constant (Kd) came to 3.51 nM.

Turning to {CH2CO}-Y[MeK]([Glu-Glu-Butanoyl(4-(4-I-phenyl))])VVSN[Trp(5-OMe)][Phe(4-COOH)]K(X1)[Trp(5-OH)][Aib]VC-NH2 (thioether N-13) [GhR_PD_227], the Kd stood at 7.38 nM. The figure for {CH2CO}-[Phe(4-COOH)]KVVSN[Trp(1-CH2CO)][Phe(4-COOH)]K[Trp(5-OH)][Aib]VCK([Glu-Glu-Biph4pCO])-NH2 (thioether N-13; lactam 2-7; not fully specified (residue 2)) [GhR_PD_253] is 1.61 nM. The figure for B10 is 10.8 nM; for {CH2CO}-[Phe(4-COOH)]KVVSN[Trp(1-CH2CO)][Phe(4-COOH)]K[Trp(5-OH)][Aib]VCK([AEEA-AEEA-Glu-Glu-C17 diacid])-NH2 (thioether N-13; lactam 2-7; not fully specified (residue 2)) [GhR_PD_274] it is 3.33 nM.
